In data set [1] the test system is experimental autoimmune encephalomyelitis. The experiment in a line: Autoimmune encephalomyelitis (EAE) model. Type of data set: in vivo, rats. The conditions noted are these: when dosed alone. On the procedure:
METHOD. Autoimmune Encephalomyelitis (EAE) Model. EAE is induced in rats by immunization against 25 μg of guinea pig myelin basic protein (MBP) formulated with CFA containing 1 mg of grounded Mycobacterium tuberculosis H37Ra. Pertussis toxin is given intraperitoneally (1 μg/rat) to enhance the organ-specific autoimmunity. Starting 8 days after induction, rats are divided into […]: (1) untreated control (n=8), (2) test compound (n=7), and (3) test compound plus competitor compound (n=7), such as EC0923 competition. All treatments start on day 8 after EAE induction. The animals in the EAE control group are left untreated. […] The clinical severity of EAE is monitored on a daily basis and graded on a scale of 0 to 5 per animal. The clinical signs of ascending paralysis of EAE rats are divided into a 0-5 scale: 0=No disease, 0.5=distal limp tail, 1=limp tail, 2=mild paraparesis; ataxia-weakened hind limbs, 3=moderate paraparesis; hind limbs paresis, 4=complete hind limb paralysis, 5=complete hind limb paralysis and incontinence (euthanasia). On day 16, the animals are euthanized and brain and spinal cords are fixed in formalin for histology.

A short description of data set [2]: Relative whole animal toxicity in folate deficient rats. The conditions noted are these: 3 μmol/kg i.v. BIW, 2 weeks. It counts as in vivo. As for the experimental part:
EXAMPLE. […] Test compounds are administered i.v. at equivalent doses to folate deficient rats.

Data set [3] is described as follows: Plasma stability / free drug release after s.c. dose (EC1496 vs EC0746). Type of data set: in vivo, rats. The conditions noted are these: 500 nmol/kg s.c. On the procedure: METHOD. Human serum stability. Compounds described herein are tested in human serum for stability using conventional protocols and methods. Briefly, test compound is administered to the test animal, such as by subcutaneous injection. The plasma concentration of the conjugate, and optionally one or more metabolites, is monitored over time. The results are graphed to determine Cmax, Tmax, half-life, and AUC for the test compound and metabolites.
EXAMPLE. […] EC1495 and EC0746 (comparator compound) are each administered at 500 nmol/kg by subcutaneous injection. The plasma concentration of the conjugate and the metabolites (aminopterin and aminopterin hydrazide) are monitored over time. […] As also shown in the following table, free drug is released as the parent aminopterin and the hydrazide derivative (EC0470).

The values below come from patent US20200121801A1, “DRUG DELIVERY CONJUGATES CONTAINING UNNATURAL AMINO ACIDS AND METHODS FOR USING” (priority 2012, published 2020).

Regarding `N=c1[nH]c(N)nc2ncc(CNc3ccc(C(=O)N[C@@H](CCC(=O)NNC(=O)OCCSSC[C@@H](NC(=O)[C@H](CCC(=O)NC[C@H](O)[C@@H](O)[C@H](O)[C@H](O)CO)NC(=O)[C@@H](CCC(=O)O)NC(=O)[C@H](CCC(=O)NC[C@H](O)[C@@H](O)[C@H](O)[C@H](O)CO)NC(=O)[C@@H](CCC(=O)O)NC(=O)[C@H](CCC(=O)NC[C@H](O)[C@@H](O)[C@H](O)[C@H](O)CO)NC(=O)CC[C@@H](NC(=O)c4ccc(NCc5cnc6nc(N)[nH]c(=O)c6n5)cc4)C(=O)O)C(=O)O)C(=O)O)cc3)nc12` [EC1496], in data set [1], the treatment-related weight loss entry is “not observed”. Also, the “toxicity relative to comparative example EC0746” value in data set [2] is “less toxic”. Moreover, in data set [3], the “Cmax of conjugate, comparison” value is given as “higher Cmax than EC0746” and the “half-life, comparison with EC0746” value is reported as “shorter half-life”. For the same compound, in data set [3] (plasma), the “Free drug released (%): AMT” value was 5.13%, the “Free drug released (%): AMT-hydrazide (EC0470)” value is on record as 3.15% and the “Free drug released (%): Total” value is on record as 8.28%.
